Results from paper PMC4963399.

Target: T1, rhodopsin, P15409
T1 chain: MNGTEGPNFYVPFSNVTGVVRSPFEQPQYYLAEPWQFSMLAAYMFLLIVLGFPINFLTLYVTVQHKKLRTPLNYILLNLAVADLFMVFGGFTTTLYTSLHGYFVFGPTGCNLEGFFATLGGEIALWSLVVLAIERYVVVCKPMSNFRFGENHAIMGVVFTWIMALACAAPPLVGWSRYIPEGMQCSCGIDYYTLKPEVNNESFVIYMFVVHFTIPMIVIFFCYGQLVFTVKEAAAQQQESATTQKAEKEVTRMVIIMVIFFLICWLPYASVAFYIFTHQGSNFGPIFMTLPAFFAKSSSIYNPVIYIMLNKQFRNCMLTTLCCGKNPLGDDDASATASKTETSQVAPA
Assay: FRET or BRET; three cube sensitized acceptor emission FRET on single isolated rod outer segments of C57BL/6J mice co-transduced with two rAAV vectors (cerulean and citrine fusions); FRET imaging solution pH 7.4; FRET efficiency EA as mean ± SEM
Conditions: remark: other sources report otherwise

B1: peripherin-2, N-terminally tagged with citrine, P15499 1-346 (natural protein)
chain: MALLKVKFDQKKRVKLAQGLWLMNWLSVLAGIVLFSLGLFLKIELRKRSEVMNNSESHFVPNSLIGVGVLSCVFNSLAGKICYDALDPAKYAKWKPWLKPYLAVCIFFNVILFLVALCCFLLRGSLESTLAYGLKNGMKYYRDTDTPGRCFMKKTIDMLQIEFKCCGNNGFRDWFEIQWISNRYLDFSSKEVKDRIKSNVDGRYLVDGVPFSCCNPSSPRPCIQYQLTNNSAHYSYDHQTEELNLWLRGCRAALLNYYSSLMNSMGVVTLLVWLFEVSITAGLRYLHTALESVSNPEDPECESEGWLLEKSVPETWKAFLESFKKLGKSNQVEAEGADAGPAPEAG
  FRET efficiency EA: 4.52

B2: peripherin-2, C-terminally tagged with citrine, P15499 1-346 (natural protein)
chain: B1 chain
  FRET efficiency EA: 2.76
